Data taken from article PMC2114734.

Target: High affinity thrombin receptor of NIL hamster fibroblasts (Syrian hamster (endogenous in NIL cells))
Assay: radioligand binding

- specific 125I-thrombin binding (cpm/ug protein): 439
Substance: Human alpha-thrombin (from UniProt P00734 364-622; P00734 364-622) (enzyme)
